Usually Kd stands for a measure of binding affinity in units of concentration. The low end stands for tighter binding, the high end for weaker binding.

Results on one molecule are retold here after PMC6225287 (2018).

The experiment concerns the target FGF-2 (Homo sapiens, UniProt P09038). As to the kind of experiment: SPR. For orientation: Surface plasmon resonance follows binding to a sensor surface in real time, without labels.

Sequence of FGF-2 (P09038 143-288): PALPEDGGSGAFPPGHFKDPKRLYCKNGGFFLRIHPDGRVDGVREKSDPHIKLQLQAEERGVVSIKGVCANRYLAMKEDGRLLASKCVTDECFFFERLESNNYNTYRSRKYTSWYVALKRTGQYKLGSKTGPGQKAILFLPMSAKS

B1: DD15 peptide (thrombospondin-1) type III repeats (peptide)
chain: QEDYDKDGIGDACDD
Molecule B1 yielded a Kd of 28 µM.
